Laboratory results taken from US7422862B2, “Methods for identifying modulators of apoptosis” (The Burnham Institute, priority 2001, dated 2008).

Columns and labels:
[1] = target: T1, Bax (Homo sapiens, UniProt Q07812); test: Co-immunoprecipitation of GFP-Humanin fusion polypeptides with Bax in transfected cells; assay type: binding; parameters: expressed in transfected cells; host or cells: HEK293T; key to Bax binding: +: ability to bind Bax was determined by co-immunoprecipitation assay; −: lacked Bax-binding activity; conditions: for co-immunoprecipitation with tagged Bax: 293T/HEK293T cells, anti-GFP immunoprecipitation
Excerpt: Humanin (HN) cDNA was sub-cloned into a Green Fluorescence Protein (GFP) expression vector GFP-Cl at the Xhol/Hind III sites, producing a GFP-HN fusion polypeptide. GFP and GFP-HN were transfected into 293T cells with pcDNA3-HA-Bax. Cell lysates from these cells were immunoprecipitated with anti-GFP antibody and subsequently blotted with anti-HA antibody. The lysates were also blotted with ani-GFP antibody to confirm polypeptide expression. […] The data shown were obtained using the cytosolic form of Humanin; however, both cytosolic and mitochondrial forms of Humanin were tested and the results were the same.
Co-immunoprecipitation assays were performed using Humanin polypeptides expressed as fusion polypeptides with the Green Fluorescent Protein (GFP) in human cells. Wild-type Humanin fused to GFP is referred to as GFP-HN and a mutant form of Humanin, where the cysteine at position 8 is replaced with proline, fused to GFP is referred to as GFP-C8P. […] Immunoblot analysis of lysates of the transfected cells confirmed production of all proteins. In addition, GFP-HN also coimmunoprecipitated endogenous Bax from cell lines, which contain relatively high levels of the Bax protein.
Immunoblotting and immunoprecipitations were performed as follows. Immunoblotting was performed as described previously (Fields and Song, Nature 340:245-246 (1989)). For co-immunoprecipitations, cells were cultured in 50 uM […] Valine Alanine Asparate fluoromethyl-ketone (zVAD-fmk) to prevent apoptosis. Cells were suspended in lysis buffer (50 mM Tris-HCl, pH7.4; 150 mM NaCl; 20 mM EDTA; 50 mM NaF; 0.5% NP-40; 0.1 mM Na3VO4; 20 ug/ml Leupeptin; 20 ug/ml Aprotinin; 1 mM DTT; and 1 mM PMSF). Lysates (200 ul diluted in 1 ml final volume of lysis buffer) were cleared by incubation with 15 ul of protein G-Sepharose 4B (Zymed) and then incubated with 15 ul of polyclonal antibody and 15 ul of protein G at 4° C. overnight. Beads were then washed 4 times with 1.5 mls lysis buffer before boiling in Laemmli sample buffer and performing SDS-PAGE/immunoblotting.
(§1) In order to explore whether a correlation exists between Humanin binding to Bax and Humanin-mediated suppression of apoptosis, Bax was co-expressed with various GFP-fusion polypeptides encoding wild-type, full-length Humanin or various truncation and site-specific mutants of Humanin (Table 1). Expression of all GFP-fusion polypeptides was confirmed by immunoblotting, and ability to bind Bax was determined by co-immunoprecipitation assay. Each Humanin mutant was scored for ability to suppress apoptosis induced by Bax over-expression by >50% using a 3:1 ratio of HN:Bax plasmid DNA. […] Based on these studies, an active region of the 24 amino-acid Humanin peptide, mapped to residues 7-17.

[2] = target: T1, Bax; test: Bax-induced apoptosis in transfected neuronal cells (DAPI staining); assay type: cell-based; parameters: expressed in transfected cells
Experimental: (A) HEK293T cells were transfected with pcDNA3-HA-Bax together with plasmids encoding GFP, GFP-HN(N), or GFP-HN(M). Cell lysates were immunoprecipitated with polyclonal anti-GFP antibody. Immunoprecipitates (IP) or cell lysates were analyzed by immunoblotting using anti-HA or anti-GFP antibodies, respectively. (B) CSM14.1 neuronal cells were co-transfected with pcDNA3-HA-Bax together with plasmids encoding GFP, GFP-HN(N), or GFP-HN(M). Percent apoptosis was determined 48 h later by DAPI staining (mean±SD; n=3).
Rat neuronal cell line CSM14.1 cells were transfected with various plasmids using the Lipofectamine reagent (Invitrogen). For transfection, 10×10^5 cells were plated per well using 6 well plates. Each well received 1 μg DNA plus […] of Lipofectamine. After 24 hours of transfection, the percentage of cell death was determined using 4′-6-diamidino-2-phenylindole (DAPI) staining. […] The data shown were obtained using the cytosolic form of Humanin; however, both cytosolic and mitochondrial forms of Humanin were tested and the results were the same.
(§2) Apoptosis assays were performed as follows. Both floating and adherent cells (after trypsinization) were collected 48 hr after transfection, fixed, and stained using 4′,6-diamidine-2′-phenylindole dihydrochloride (DAPI) for assessing apoptosis based on nuclear fragmentation and chromatin condensation (Fields and Song, supra (1989)).
Since Humanin co-immunoprecipitates with Bax but not Bak, the effects of Humanin over-expression on apoptosis induced by these members of the Bcl-2 family was compared. […] Similar results were obtained regardless of whether Humanin was fused to the N- or C-terminus of GFP, with both of these GFP fusion polypeptides localizing to the cytosol of cells.

[3] = target: T1, Bax; test: Suppression of apoptosis induced by Bax over-expression (Humanin mutants); assay type: cell-based; parameters: expressed in transfected cells; host or cells: HEK293T; conditions: GFP-fusion polypeptides, 3:1 ratio of HN:Bax plasmid DNA
Experimental: as §2, §1
Cell culture and transfections were performed as follows. CSM14.1, HCT116, Cos-7, and SF268 cells were cultured in DMEM high glucose media (Irvine Scientific, Santa Ana, Calif.) containing 10% fetal bovine serum (FBS). PC-3 cells were cultured with RPMI 1640 media containing 10% FBS. Transfection of cells was performed using SuperFect (Qiagen, Chatsworth, Calif.) or LipofectaminePLUS reagent ([…]).

[4] = system: Bax-deficient HCT116 cells; test: STS-induced apoptosis in Bax-deficient HCT116 cells; assay type: cell-based, human
[5] = system: HCT116 parental cells; test: STS-induced apoptosis in HCT116 parental cells; assay type: cell-based, human

T1 sequence (Q07812 whole entry, species assumed, the tested form may be a part): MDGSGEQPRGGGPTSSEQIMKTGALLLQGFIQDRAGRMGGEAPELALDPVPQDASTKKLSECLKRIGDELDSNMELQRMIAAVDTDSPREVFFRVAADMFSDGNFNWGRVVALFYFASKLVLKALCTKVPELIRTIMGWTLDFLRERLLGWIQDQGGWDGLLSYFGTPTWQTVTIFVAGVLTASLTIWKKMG

| co-immunoprecipitation with tagged Bax ([1]; listed as GFP-HN(N)) | Bax binding ([1]; GFP-fusion polypeptides, co-immunoprecipitation) | co-immunoprecipitation of endogenous Bax ([1]; cell lines with relatively high levels of Bax) | suppression of Bax-induced apoptosis, nuclear vs mitochondria-encoded form ([2]; CSM14.1 cells, 48 h, DAPI) | suppression of apoptosis induced by Bax ([2]; CSM14.1 or PC-3 cells, transient co-transfection) | Substance | co-immunoprecipitation with tagged Bax [1] | Bax-induced apoptosis ([2]; CSM14.1 cells, 24 hours after transfection, DAPI) | Bax suppression [3] | suppression of STS-induced apoptosis [4] | reduction of percentage of cells undergoing STS-induced apoptosis [5] |
| --- | --- | --- | --- | --- | --- | --- | --- | --- | --- | --- |
| – | – | – | – | – | Humanin: 24 amino acid polypeptide, cytosolic form of human Humanin (SEQ ID NO:2); used as synthetic peptide or expressed fusion | co-immunoprecipitate | decreased | – | – | – |
| comparable amounts | + | coimmunoprecipitated | suppressed to comparable extents | about half | GFP-HN: Wild-type full-length Humanin fused to Green Fluorescent Protein | co-immunoprecipitated | – | + (ability to suppress apoptosis induced by Bax over-expression by >50%) | failed to suppress | about half |
